Source: publication PMC9647470

Assay: cycloheximide chase, endogenous CK2α, HEK293T
Conditions: glycan lost; control: untreated

B1: Casein kinase 2 alpha (CK2α): OSMI-4b (protein)
parent chain: MSGPVPSRARVYTDVNTHRPREYWDYESHVVEWGNQDDYQLVRKLGRGKYSEVFEAINITNNEKVVVKILKPVKKKKIKREIKILENLRGGPNIITLADIVKDPVSRTPALVFEHVNNTDFKQLYQTLTDYDIRFYMYEILKALDYCHSMGIMHRDVKPHNVMIDHEHRKLRLIDWGLAEFYHPGQEYNVRVASRYFKGPELLVDYQMYDYSLDMWSLGCMLASMIFRKEPFFHGHDNYDQLVRIAKVLGTEDLYDYIDKYNIELDPRFNDILGRHSRKRWERFVHSENQHLVSPEALDFLDKLLRYDHQSRLTAREAMEHPYFYTVVKDQARMGSSSMPGGSTPVSSANMMSGISSVPTPSPLGPLAGSPVIAAANPLGMPVPAAAGAQQ
With B1 the degradation_or_half_life was “no change”.
